In the supplement of paper PMC12042874:
± gives the uncertainty stated by the source.

Test: amyloid nucleation score (Sup35N fusion, yeast selection) (log enrichment); library NNK2; higher = more nucleation; inactive = no reads after selection
Procedure, shortened: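 Nucleation score: DiMSum log enrichment of output over input reads, centred on the mode score of non-aggregating sequences. Only sequences with at least 100 input reads were kept. Reads came from Illumina sequencing of plasmid inserts before and after 7 days of growth at 30°C without adenine and uracil, in psi-negative yeast expressing Sup35N fused to peptides of 20 random codons after 24 hours of induction with 100 μM copper sulfate.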

Substance	amyloid nucleation score
LSREFLNASL	-0.947 ± 0.49
YLNVNNSQDNESAYVFDKVV	0.058 ± 0.74
LIARSLGFKNVWS	-0.575 ± 0.54
IGWGYRWVRWL	-0.415 ± 0.5
FFMNNALFRGWG	2.97 ± 0.15
YTNHSLNMHLWCRNS	inactive
RILWK	inactive
TSQLRMDGSSILMAHLKCYR	0.441 ± 0.26
YGQLRHFVRTGLDGGTHRGL	-0.174 ± 0.76
YTEQVYVYLGFLSHGASRYL	-0.716 ± 1.1
CNRYWGRPHGYFFSSSMCMV	-1.28 ± 0.75
RMCDL	-1.19 ± 0.79
KPNFIRLYRIKFNKLGLGIT	-0.855 ± 1
FMGFTISFFVRDFAPDLTKR	3.1 ± 0.064
AYLPHAHTT	-0.154 ± 0.33
SMYDAGIFVGYCLRGFLYDC	inactive
SGLTSIWQPTRTRMMSPSRR	0.08 ± 0.79
QGGLDRMYGSDVVYFKDTYP	0.379 ± 0.54
CTSLRYFCARFELLSAHSKW	0.199 ± 0.4
WSTSFYLLIFTPRVCCMDFF	5.619 ± 0.034
LWTKFDSPSRVCHKSQLSKA	0.192 ± 0.26
IVAGFNSKWLSTDFNRTENR	-0.517 ± 0.78
TPWSSVWSVALSGARMGPRS	3.71 ± 0.079
YLACFTARL	3.91 ± 0.049
NDFTFLMFDM	1.25 ± 0.44

Substance	amyloid nucleation score
HPDGYVHRVGSLN	-0.235 ± 1.1
YFGVEKDEFPPLLGMHMF	-1.59 ± 0.75
YVQVFRSLDYNHHAKS	-0.508 ± 0.39
HAMLRTDILICCITH	9.805 ± 0.065
HFKSDSSSSEMTRLVEPGGV	-0.125 ± 0.63
GARMHCGFCMGSWWYVFWVR	1.32 ± 0.37
RVYMCCSSYCGNITKVQ	8.027 ± 0.022
YTTNIF	-0.793 ± 0.49
VEWCRMVGWSFECEASEKHW	4.33 ± 0.055
PLLFTWAVLINALWVKSTPG	-0.19 ± 1
MTTFDIRIMA	0.195 ± 0.24
QLVGMD	0.868 ± 0.27
DSYGSFVKLMTVSVYMKGVF	inactive
DSSVSAPMSSFDRWTTHCVL	0.373 ± 0.43
MGFQVYLGRGLNDFKAE	2.66 ± 0.11
FPSCSRGLHFKGLWTWYFPT	-0.388 ± 1.1
GVIWWPVTLCFWLCAKYIGL	-0.552 ± 1.1
VSQGRFKYERVVCVNFGKEL	0.201 ± 0.74
TGFMVTFASST	0.02 ± 0.22
RSCSMMVVHLYRGYGKFDTP	-0.354 ± 0.76
TFSLLGL	4.1 ± 0.064
PVLCVYFSIYN	8.151 ± 0.054
WRHSVVMYNWKIGHCVGDYW	0.718 ± 0.18
WYRLLGFAMD	-0.603 ± 1.1
GNVSYHSCVW	0.449 ± 0.36

Substance	amyloid nucleation score
VADMVVRT	0.806 ± 0.32
DFYLFQG	0.228 ± 0.56
VDSVTGVMTFSTRSRSSDGD	0.844 ± 0.43
EGFHGRMCHEHGKVLKAID	0.178 ± 0.24
TFAPDLS	-0.053 ± 0.56
YVRYGP	-0.289 ± 0.26
RADVRMFLTRGLKVDFG	-0.322 ± 0.49
EVTILVGKGERLKRTYCSR	0.329 ± 0.2
GRKTDFHFDVRFAWGDNGFS	inactive
PNNINRFRRSYFY	-1.14 ± 0.49
YLMSFGPWGNYYFRSCKLWL	6.42 ± 0.082
MGCICWVDCKPYDFGMTVVM	-0.726 ± 0.49
CEYYVHLRY	-0.702 ± 0.49
YVHVNIRYFYSLGDAVDKMP	4.86 ± 0.11
CSFVLVFVIIQ	3.49 ± 0.12
ILVREHFVSIKFLSR	-1.21 ± 1.1
LLAFFMWSLRQRDSGTLLLD	-0.63 ± 0.52
LFHCLSELLVGSSNSRFVCE	0.456 ± 0.42
NMEQFTRSIKSIGKRFTVTV	-0.471 ± 0.76
DCDVSVNSVYITVKSAICAV	0.767 ± 0.66
PSGFRSLLFEVHHFSRWAYD	0.691 ± 0.15
LFRCIKDMAY	0.202 ± 0.51
AGLLYVSRLNWSVSQRNGVG	0.131 ± 1
QVIDTSPRHVMVIYVP	-0.307 ± 0.76
GVDDARTTKAGNWYSVRKGQ	1.64 ± 0.41

Substance	amyloid nucleation score
LNSYPASV	inactive
QLVNMRTCLLSRDLRLLELL	-0.318 ± 0.45
YNLYHSCLDQRTYHSGKFSI	2.3 ± 0.14
HFSDVSSEVGVIHCSMLGSN	-0.107 ± 0.49
TGLIGEPYGWDRSTTGF	0.17 ± 0.43
KLYVAIMNSWILGKVGSYNG	6.214 ± 0.034
VIAGDTQGMSRGWFLGVLPW	inactive
CFAYSSWDTPDMMAWVCRWD	0.154 ± 0.65
ASSWGVNGRVNKISRTG	1.32 ± 0.18
YYGQSPALDRR	-0.238 ± 0.45
FVYGQWPNRSRAISSTSMFK	-0.723 ± 0.36
SIHEMYFKAMDSVH	-0.276 ± 0.62
DRFVWVADTWWSRRNNAAFG	4.16 ± 0.054
TCFTSCSG	0.263 ± 0.37
HKCTSAV	0.229 ± 0.61
VRSSPTRVRERRSIILVLNC	0.594 ± 0.81
ERYLCVVDMEIKGRALRKRW	-0.144 ± 0.44
RLYNKALYANFKNYSLTCFS	-0.39 ± 0.64
NFYFLIRLKAFSCLRIENWF	2.28 ± 0.061
LNRTRYIAISKVLNRFSVSR	-0.237 ± 0.64
MMIAWFSRMCFF	2.92 ± 0.1
NLGRAQTSQ	0.192 ± 0.65
MALVSTSSFFDV	inactive
FINRPVKRKLNSSNIYICV	3.16 ± 0.14
KVTSMHVFIESWGV	0.082 ± 0.79

Substance	amyloid nucleation score
GSPSRRGTVYRVWRVRWCNG	0.307 ± 0.64
CCDRSAPAT	-0.12 ± 0.54
IFHSESALWRHRYMGYVMVR	-0.66 ± 0.45
YTKSQGAFT	-0.135 ± 0.65
PSLVRRNTSLCL	0.325 ± 0.41
EFKHSLIVASARRRNDFGYR	0.224 ± 0.43
KPEVRVEMQCNYVAWYTDMI	-0.61 ± 0.37
SCDRIRMCCSWCQV	3.54 ± 0.049
CDYYLFLCIYRSQNVGTEGG	6.783 ± 0.063
VWLRYYMCFNFVWSIVGVRI	3.81 ± 0.052
WKNYRNMEWCVSSVLSFFYV	5.31 ± 0.077
WVFNNELCNDYEHWLWARFD	-0.295 ± 0.56
GIVYVALSHYLAVNTKVFMP	0.477 ± 0.66
LLVAEVV	0.538 ± 0.49
EGRCNYTGHMFCRYLCKHYT	-0.088 ± 1.1
NAFLPG	4.52 ± 0.12
ESQWYVIDGAPFPTSGVLMS	0.013 ± 0.35
FTNNSPARSCDRVHGDGVRH	0.376 ± 0.35
CLGGTLYLRCFIVDLLWSTG	-0.219 ± 0.55
PVSGGVNFNNRLLITWRAFW	0.885 ± 0.58
IIVYVDDSPLYAVSRLQSYC	0.758 ± 0.13
LLCCIIIIGMVLGLMTDPEW	-0.781 ± 0.76
ICGYEACNNIGP	-1.12 ± 0.62
NVFFSFSMYKDAYNE	-0.937 ± 0.54
PFILLGTPELVTNGEHAERG	0.647 ± 0.66

Substance	amyloid nucleation score
DSLFIACVSLF	-0.26 ± 0.63
MLIPRVFISHVDICGYISCS	4.626 ± 0.036
SFDKGIDYRFFTFNSNVKYW	3.49 ± 0.12
SVLAAP	inactive
RVMSHT	0.658 ± 0.51
LFRQEAMIPL	0.594 ± 0.66
FFIQLSIPERFTVRVLIRRR	inactive
FGFGRRKSKKWLVDLDPRR	inactive
LQCLSRASGHCPGRSTFWHF	1.02 ± 0.27
RSRARSWFLDKDMLLSKDRA	inactive
YSWWW	1.15 ± 0.66
MYCLVYHQIYSDSHA	3.91 ± 0.05
ASWYRMWMWCEHTSSRLCVK	5.268 ± 0.037
SDSYAILLPC	0.087 ± 0.79
DFFYTYGGIYGYWSFRHGIV	-1.24 ± 0.62
NRETGANCARMPKVNVWEQQ	0.865 ± 0.25
SNIGCRKIWTSLRSMDLIIG	-0.006 ± 0.65
LVFLIETRNFFRLHLSGCWA	-1.27 ± 0.75
GYLLGSDSGDGGPFVIERIK	0.687 ± 0.38
NSELLFLGVEWNRT	-0.142 ± 0.79
YSSFFHFRVCNLCRWGSVSN	0.121 ± 0.18
SYRSRVQYLCGNSMCLHAPI	5.15 ± 0.098
FWVKVNMSLGMSNLFVYACL	6.298 ± 0.024
RRGGDKVIISEHV	-0.757 ± 0.45
SFGHHPDYRNVMVESYNRMV	0.259 ± 0.23

Substance	amyloid nucleation score
KLAPLNKGSFA	-0.211 ± 0.63
YYLSNPRGVHISIYREHNMS	6.392 ± 0.043
NVHRRMSEYVCVDRWEEWVR	0.811 ± 0.67
NPLQRTVYWFIIKRDCFHSV	-1.46 ± 0.45
WDDFTYGYRLRIYFLIFQRG	-1.15 ± 1.1
VLYWCPRDSKTWLSGRLLPM	1.33 ± 0.47
DRRRK	1.43 ± 0.23
CVLMTALNLRKRSVGMPFCW	4.67 ± 0.077
LSLNFLPYWLPQARCL	5.06 ± 0.099
LQLCCAMVS	0.883 ± 0.44
YTLFYARNLSSMDVICN	-1.09 ± 0.76
MGLSWLSLLLKCRCQWACKL	0.306 ± 0.65
HYSRD	-0.593 ± 1.1
FLVLVWSRCSNLFL	2.86 ± 0.14
WVTSDRYKRALARKSHEQRN	0.423 ± 0.24
NRSLGNHAEYNHASRLKGDS	-0.658 ± 0.31
PILGGEFDAGWRNFLFWKGW	0.448 ± 0.66
LGTEAEWCVGLMCSVKRYQM	4.58 ± 0.068
KSIVNL	0.465 ± 0.41
AISDGPET	0.746 ± 0.43
YLSDNHYWCWSYESF	-0.725 ± 0.41
RYIMHL	-0.105 ± 1.1
VRGYRVGVWLRTGRVLVYRG	-0.282 ± 0.76
VAVTMHYDNFHCLLCCCSTL	8.384 ± 0.078
